Assay results as given in publication doi:10.1101/385401 (bioRxiv, 2018).
Where a chain is given by its changes, count along the chain named. Numbers in names are those of the source. Read-outs that look alike come from different tables or passages of the source.

Columns and labels:
[1] = biological target: the molecule itself; assay: crystal structure
[2] = biological target: the molecule itself

B1: Escherichia coli (Ec) dGTPase, wild type (enzyme, UniProt P15723 1-505, looked up)
chain: MAQIDFRKKINWHRRYRSPQGVKTEHEILRIFESDRGRIINSPAIRRLQQKTQVFPLERNAAVRTRLTHSMEVQQVGRYIAKEILSRLKELKLLEAYGLDELTGPFESIVEMSCLMHDIGNPPFGHFGEAAINDWFRQRLHPEDAESQPLTDDRCSVAALRLRDGEEPLNELRRKIRQDLCHFEGNAQGIRLVHTLMRMNLTWAQVGGILKYTRPAWWRGETPETHHYLMKKPGYYLSEEAYIARLRKELNLALYSRFPLTWIMEAADDISYCVADLEDAVEKRIFTVEQLYHHLHEAWGQHEKGSLFSLVVENAWEKSRSNSLSRSTEDQFFMYLRVNTLNKLVPYAAQRFIDNLPAIFAGTFNHALLEDASECSDLLKLYKNVAVKHVFSHPDVERLELQGYRVISGLLEIYRPLLSLSLSDFTELVEKERVKRFPIESRLFHKLSTRHRLAYVEAVSKLPSDSPEFPLWEYYYRCRLLQDYISGMTDLYAWDEYRRLMAVEQ
[1]
  stoichiometry N: 6

B2: selenium methionine labelled Ec-dGTPase (enzyme, Escherichia coli, UniProt P15723 1-505, looked up)
chain: B1 chain
modifications: selenium methionine labelled
[1]
  stoichiometry N: 6

B3: Ec-dGTPase H126A variant (enzyme, Escherichia coli, UniProt P15723 1-505, looked up)
chain: B1 chain with H126A
[2]
  stoichiometry N: 6

B4: Ec-dGTPase E129A variant (enzyme, Escherichia coli, UniProt P15723 1-505, looked up)
chain: B1 chain with E129A
[2]
  stoichiometry N: 6

B5: Ec-dGTPase Y272A variant (enzyme, Escherichia coli, UniProt P15723 1-505, looked up)
chain: B1 chain with Y272A
[2]
  stoichiometry N: 6
